In PMC6960015 one finds fold reduction of binding affinity against wild type data, which are given here for one substance.

The assay concerns the target GST-ArhGAP12 ΔNΔP R582A (mouse (NIH 3T3 cDNA library)) (UniProt S4R248). Briefly: BLI.

Substance “Rabbit skeletal muscle LatB-actin (from UniProt P68135 1-377) (natural protein)” returned a fold reduction of binding affinity against wild type of 1300 fold.
